Data taken from article PMC4735815, “Protein unfolding as a switch from self-recognition to high-affinity client binding” (Nature Communications, 2016).

Target: the molecule itself
Assay: cross-linking; in vitro UV crosslinking of purified Hsp33^M172S-BPA variants alone; dimers at ∼70 kDa

B1: Hsp33^M172SL202BPA (natural protein)
chain: MIMPQHDQLHRYLFENFAVRGELVTVSETLQQILENHDYPQPVKNVLAELLVATSLLTATLKFDGDITVQLQGDGPMNLAVINGNNNQQMRGVARVQGEIPENADLKTLVGNGYVVITITPSEGERYQGVVGLEGDTLAACLEDYFMRSEQLPTRLFIRTGDVDGKPAAGGSLLQVMPAQNAQQDDFDHLATLTETIKTEEFLTLPANEVLWRLYHEEEVTVYDPQDVEFKCTCSRERCADALKTLPDEEVDSILAEDGEIDMHCDYCGNHYLFNAMDIAEIRNNASPADPQVH
modifications: p-benzoyl-L-phenylalanine (BPA) at position 202
  stoichiometry N: 2
